Drawing on the Human Domainome abundance scans (Beltran et al. 2025), this text covers abundance fitness for 47 variants.

First the molecules themselves.
B1: Transcription elongation regulator 1-like protein, residues 448 to 504; numbered along this chain, Q5VWI1 (parent)
chain: LPLEERVTHFRDMLLERGVSAFSTWEKELHKIVFDPRYLLLNSEERKQIFEQFVKTR

± gives the uncertainty stated by the source.

The variants in this series derive from B1. The experiment in a line: abundance fitness (aPCA) (normalised: wild type 0, dead -1); higher = more abundant; growth selection in yeast, the domain comes from the species named. Conditions: Homo sapiens.
Turning to LPLEERVTHFRDMLLERGVSAFSTWEKELHKIVFDPRYLLLNSEWRKQIFEQFVKTR, the abundance fitness was -0.483 ± 0.26.

LPLEERVTHFRDMLLERGVSAFSTWEKELHKIVFDPRYLLLNSEMRKQIFEQFVKTR: the abundance fitness was -0.107 ± 0.13.

For the variant LPLEERVTHFRDMLLERGVSAFSTWEKELHKIVFDPRYLLLNSEPRKQIFEQFVKTR, the abundance fitness was -0.791 ± 0.28.

As to LPLEERVTHFRDMLLERGVSAFSTWEKELHKIVFDPRYLLLNSERRKQIFEQFVKTR, the abundance fitness was -0.434 ± 0.16.

LPLEERVTHFRDMLLERGVSAFSTWEKELHKIVFDPRYLLLNSEQRKQIFEQFVKTR: the abundance fitness is -0.004 ± 0.12.

LPLEERVTHFRDMLLERGVSAFSTWEKELHKIVFDPRYLLLNSEYRKQIFEQFVKTR: the abundance fitness is -0.557 ± 0.1.

As to LPLEERVTHFRDMLLERGVSAFSTWEKELHKIVFDPRYLLLNSMERKQIFEQFVKTR, the abundance fitness amounted to 0.253 ± 0.24.

Turning to LPLEERVTHFRDMLLERGVSAFSTWEKELHKIVFDPRYLLLNSRERKQIFEQFVKTR, the abundance fitness is -0.201 ± 0.12.

For the variant LPLEERVTHFRDMLLERGVSAFSTWEKELHKIVFDPRYLLLNSSERKQIFEQFVKTR, the abundance fitness was -0.187 ± 0.12.

Turning to LPLEERVTHFRDMLLERGVSAFSTWEKELHKIVFDPRYLLLNSVERKQIFEQFVKTR, the abundance fitness is -0.159 ± 0.097.

As for LPLEERVTHFRDMLLERGVSAFSTWEKELHKIVFDPRYLLLNSYERKQIFEQFVKTR, the abundance fitness is -0.42 ± 0.15.

Consider LPLEERVTHFRDMLLERGVSAFSTWEKELHKIVFDPRYLLLNSHERKQIFEQFVKTR, for which the abundance fitness is -0.415 ± 0.28.

For the variant LPLEERVTHFRDMLLERGVSAFSTWEKELHKIVFDPRYLLLNSKERKQIFEQFVKTR, the abundance fitness was found to be 0.094 ± 0.28.

Turning to LPLEERVTHFRDMLLERGVSAFSTWEKELHKIVFDPRYLLLNSCERKQIFEQFVKTR, the abundance fitness was -0.195 ± 0.22.

On to LPLEERVTHFRDMLLERGVSAFSTWEKELHKIVFDPRYLLLNSWERKQIFEQFVKTR, for which the abundance fitness was -0.22 ± 0.12.

Take LPLEERVTHFRDMLLERGVSAFSTWEKELHKIVFDPRYLLLNSPERKQIFEQFVKTR: the abundance fitness is -0.606 ± 0.32.

Regarding LPLEERVTHFRDMLLERGVSAFSTWEKELHKIVFDPRYLLLNSDERKQIFEQFVKTR, the abundance fitness was determined as 0.27 ± 0.17.

For LPLEERVTHFRDMLLERGVSAFSTWEKELHKIVFDPRYLLLNSGERKQIFEQFVKTR, the abundance fitness is -0.211 ± 0.12.

With LPLEERVTHFRDMLLERGVSAFSTWEKELHKIVFDPRYLLLNSQERKQIFEQFVKTR, the abundance fitness was -0.143 ± 0.11.

Regarding LPLEERVTHFRDMLLERGVSAFSTWEKELHKIVFDPRYLLLNSTERKQIFEQFVKTR, the abundance fitness is -0.105 ± 0.084.

As for LPLEERVTHFRDMLLERGVSAFSTWEKELHKIVFDPRYLLLNSFERKQIFEQFVKTR, the abundance fitness was -0.21 ± 0.13.

On to LPLEERVTHFRDMLLERGVSAFSTWEKELHKIVFDPRYLLLNSLERKQIFEQFVKTR, for which the abundance fitness is -0.211 ± 0.2.

On to LPLEERVTHFRDMLLERGVSAFSTWEKELHKIVFDPRYLLLNSIERKQIFEQFVKTR, for which the abundance fitness was determined as 0.179 ± 0.37.

Regarding LPLEERVTHFRDMLLERGVSAFSTWEKELHKIVFDPRYLLLNSEERSQIFEQFVKTR, the abundance fitness was -0.627 ± 0.19.

In the case of LPLEERVTHFRDMLLERGVSAFSTWEKELHKIVFDPRYLLLNSEERPQIFEQFVKTR, the abundance fitness is -0.783 ± 0.34.

LPLEERVTHFRDMLLERGVSAFSTWEKELHKIVFDPRYLLLNSEEREQIFEQFVKTR: the abundance fitness is -0.58 ± 0.4.

LPLEERVTHFRDMLLERGVSAFSTWEKELHKIVFDPRYLLLNSEERCQIFEQFVKTR: the abundance fitness was -0.165 ± 0.26.

With LPLEERVTHFRDMLLERGVSAFSTWEKELHKIVFDPRYLLLNSEERAQIFEQFVKTR, the abundance fitness was -0.381 ± 0.1.

Consider LPLEERVTHFRDMLLERGVSAFSTWEKELHKIVFDPRYLLLNSEERDQIFEQFVKTR, for which the abundance fitness is -0.747 ± 0.26.

LPLEERVTHFRDMLLERGVSAFSTWEKELHKIVFDPRYLLLNSEERIQIFEQFVKTR: the abundance fitness came to 0.151 ± 0.44.

For the variant LPLEERVTHFRDMLLERGVSAFSTWEKELHKIVFDPRYLLLNSEERVQIFEQFVKTR, the abundance fitness was -0.501 ± 0.17.

LPLEERVTHFRDMLLERGVSAFSTWEKELHKIVFDPRYLLLNSEERHQIFEQFVKTR: the abundance fitness is -0.109 ± 0.4.

LPLEERVTHFRDMLLERGVSAFSTWEKELHKIVFDPRYLLLNSEERRQIFEQFVKTR: the abundance fitness came to 0.025 ± 0.1.

For the variant LPLEERVTHFRDMLLERGVSAFSTWEKELHKIVFDPRYLLLNSEERGQIFEQFVKTR, the abundance fitness is -0.31 ± 0.12.

On to LPLEERVTHFRDMLLERGVSAFSTWEKELHKIVFDPRYLLLNSEERLQIFEQFVKTR, for which the abundance fitness was -0.286 ± 0.15.

For LPLEERVTHFRDMLLERGVSAFSTWEKELHKIVFDPRYLLLNSEERTQIFEQFVKTR, the abundance fitness was -0.73 ± 0.45.

LPLEERVTHFRDMLLERGVSAFSTWEKELHKIVFDPRYLLLNSEERFQIFEQFVKTR: the abundance fitness was -0.04 ± 0.36.

Consider LPLEERVTHFRDMLLERGVSAFSTWEKELHKIVFDPRYLLLNSEERWQIFEQFVKTR, for which the abundance fitness is -0.602 ± 0.37.

For the variant LPLEERVTHFRDMLLERGVSAFSTWEKELHKIVFDPRYLLLNSEERQQIFEQFVKTR, the abundance fitness turned out to be 0.159 ± 0.12.

Take LPLEERVTHFRDMLLERGVSAFSTWEKELHKIVFDPRYLLLPSEERKQIFEQFVKTR: the abundance fitness was -0.533 ± 0.26.

For the variant LPLEERVTHFRDMLLERGVSAFSTWEKELHKIVFDPRYLLLLSEERKQIFEQFVKTR, the abundance fitness is -0.529 ± 0.23.

As to LPLEERVTHFRDMLLERGVSAFSTWEKELHKIVFDPRYLLLTSEERKQIFEQFVKTR, the abundance fitness was -0.325 ± 0.26.

Turning to LPLEERVTHFRDMLLERGVSAFSTWEKELHKIVFDPRYLLLSSEERKQIFEQFVKTR, the abundance fitness was 0.034 ± 0.15.

Turning to LPLEERVTHFRDMLLERGVSAFSTWEKELHKIVFDPRYLLLQSEERKQIFEQFVKTR, the abundance fitness was 0.013 ± 0.25.

With LPLEERVTHFRDMLLERGVSAFSTWEKELHKIVFDPRYLLLWSEERKQIFEQFVKTR, the abundance fitness was -0.733 ± 0.35.

For the variant LPLEERVTHFRDMLLERGVSAFSTWEKELHKIVFDPRYLLLMSEERKQIFEQFVKTR, the abundance fitness was -0.687 ± 0.33.

Consider LPLEERVTHFRDMLLERGVSAFSTWEKELHKIVFDPRYLLLVSEERKQIFEQFVKTR, for which the abundance fitness is -0.924 ± 0.35.
